Data taken from patent publication US6465220B1, “Glycosylation using GalNac-T4 transferase” (GlycoZym ApS, priority 1998, dated 2002).

How the values were obtained:
[1] = test system: T1, C[C@H](NC(=O)[C@H](C)NC(=O)[C@@H](NC(=O)[C@@H](NC(=O)[C@H](CCC(=O)O)NC(=O)[C@@H]1CCCN1C(=O)[C@@H]1CCCN1C(=O)[C@H](C)NC(=O)[C@H](CO)NC(=O)[C@H](CO)NC(=O)[C@H](CO)NC(=O)[C@@H]1CCCN1C(=O)[C@@H]1CCCN1C(=O)[C@H](C)NC(=O)[C@@H]1CCCN1C(=O)[C@@H](NC(=O)[C@@H](NC(=O)[C@H](C)NC(=O)[C@H](CO)NC(=O)[C@@H]1CCCN1C(=O)[C@@H](NC(=O)[C@@H]1CCCN1C(=O)[C@@H]1CCCN1C(=O)[C@@H](N)CS)[C@@H](C)O)[C@@H](C)O)[C@@H](C)O)[C@@H](C)O)[C@@H](C)O)C(=O)O; assay: GalNAc-transferase assay with purified recombinant GalNAc-T2; type: biochemical, human; conditions: other: acceptor substrate; pH 7.5
T1 construct: Control constructs pAcGP67-GalNAc-T1-sol, pAcGP67-GalNAc-T2-sol, pAcGP67-GalNAc-T3-sol, and pAcGP67-O^2-sol were prepared as previously described; made in house; host or cells: insect cells (baculovirus, pAcGP67)
Method: The following examples are provided to illustrate certain preferred embodiments of the invention, and should be considered as illustration and not as limitation. In the examples, GalNAc-transferase assays were performed in 50 μl total reaction mixtures containing 25 mM cacodylate (pH 7.5), 10 mM MnCl2, 0.1-0.25% Triton X-100, 150-200 μM UDP-[^14C]-GalNAc (4,000 cpm/nmole) (Amersham) and 0.06-1 mM acceptor peptides. Peptides were either synthesized or obtained from Carlbiotech (Copenhagen), or Neosystems (Strasbourg), and quality was ascertained by amino acid analysis and mass spectrometry. […] Products were quantified by scintillation counting after chromatography on Dowex-1, octadecyl silica cartridges (Bakerbond), or HPLC (PC3.2/3 or mRPC C2/C18 SC2.1/10 Pharmacia, Smart System). […]
Activities measured with the mucin derived substrates, Muc7, EA2, and Muc2 (see Table I for structures and SEQ ID NOs:19, 25 and 18, respectively), were only 2-7 fold over background values. […] GalNAc-T4 was expressed in High Five cells and purified to near homogeneity, however, very low endogenous activity was detected with some substrates in the same fractions when medium from cells infected with irrelevant expression constructs were used in the same purification strategy. […]

[2] = test system: T2, C[C@H](NC(=O)[C@H](C)NC(=O)[C@@H](NC(=O)[C@@H](NC(=O)[C@H](CCC(=O)O)NC(=O)[C@@H]1CCCN1C(=O)[C@@H]1CCCN1C(=O)[C@H](C)NC(=O)[C@H](CO)NC(=O)[C@H](CO)NC(=O)[C@H](CO)NC(=O)[C@@H]1CCCN1C(=O)[C@@H]1CCCN1C(=O)[C@H](C)NC(=O)[C@@H]1CCCN1C(=O)[C@@H](NC(=O)[C@@H](NC(=O)[C@H](C)NC(=O)[C@H](CO)NC(=O)[C@@H]1CCCN1C(=O)[C@@H](NC(=O)[C@@H]1CCCN1C(=O)[C@@H]1CCCN1C(=O)[C@@H](N)CS)[C@@H](C)O)[C@@H](C)O)[C@@H](C)O)[C@@H](C)O)[C@@H](C)O)C(=O)O; assay: GalNAc-transferase assay with purified recombinant GalNAc-T4; type: biochemical, human; conditions: other: acceptor substrate; pH 7.5
T2 construct: made in house; host or cells: High Five insect cells (baculovirus, pAcGP67 vector)
Method: In the examples, GalNAc-transferase assays were performed in 50 μl total reaction mixtures containing 25 mM cacodylate (pH 7.5), 10 mM MnCl2, 0.1-0.25% Triton X-100, 150-200 μM UDP-[^14C]-GalNAc (4,000 cpm/nmole) (Amersham) and 0.06-1 mM acceptor peptides. […] Products were quantified by scintillation counting after chromatography on Dowex-1, octadecyl silica cartridges (Bakerbond), or HPLC (PC3.2/3 or mRPC C2/C18 SC2.1/10 Pharmacia, Smart System).

Sequence of GalNAc-T2 (Homo sapiens) (chain, as listed by the source): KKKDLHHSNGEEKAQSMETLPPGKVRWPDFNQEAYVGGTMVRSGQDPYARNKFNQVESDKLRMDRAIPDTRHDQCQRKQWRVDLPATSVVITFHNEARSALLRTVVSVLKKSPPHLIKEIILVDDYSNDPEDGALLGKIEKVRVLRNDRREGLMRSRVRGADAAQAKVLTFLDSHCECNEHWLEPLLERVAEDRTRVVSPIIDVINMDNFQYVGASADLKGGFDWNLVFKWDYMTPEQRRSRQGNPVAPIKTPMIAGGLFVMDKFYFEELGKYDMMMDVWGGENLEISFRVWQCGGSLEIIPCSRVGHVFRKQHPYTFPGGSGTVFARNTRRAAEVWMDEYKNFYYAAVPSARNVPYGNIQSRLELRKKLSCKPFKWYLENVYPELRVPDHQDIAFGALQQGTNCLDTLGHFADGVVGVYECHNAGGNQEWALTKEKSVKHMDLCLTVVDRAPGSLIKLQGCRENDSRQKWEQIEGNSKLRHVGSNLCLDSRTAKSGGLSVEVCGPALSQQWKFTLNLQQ
Sequence of GalNAc-T4 (Homo sapiens) (chain, as listed by the source): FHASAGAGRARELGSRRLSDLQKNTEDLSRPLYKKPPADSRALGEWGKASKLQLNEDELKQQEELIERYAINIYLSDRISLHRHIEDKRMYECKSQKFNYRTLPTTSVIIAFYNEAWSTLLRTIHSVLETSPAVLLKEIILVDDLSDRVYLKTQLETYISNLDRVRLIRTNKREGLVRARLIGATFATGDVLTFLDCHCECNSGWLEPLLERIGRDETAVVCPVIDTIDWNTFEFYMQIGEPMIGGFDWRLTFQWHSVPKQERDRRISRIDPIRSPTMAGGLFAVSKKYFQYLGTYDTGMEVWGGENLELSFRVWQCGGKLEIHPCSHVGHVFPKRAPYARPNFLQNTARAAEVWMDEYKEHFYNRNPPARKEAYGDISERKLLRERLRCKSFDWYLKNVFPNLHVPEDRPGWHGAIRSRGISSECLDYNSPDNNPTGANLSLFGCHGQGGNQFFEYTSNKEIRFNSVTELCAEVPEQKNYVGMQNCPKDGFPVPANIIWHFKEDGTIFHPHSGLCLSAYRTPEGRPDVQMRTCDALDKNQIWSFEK

Row | Substance | Km [1] [µM] | Vmax [1] [nmol/min/µg] | Km [2] [µM] | Vmax [2] [nmol/min/µg]
1 | GalNAc-T2 (Homo sapiens) | 15 | 0.64 | – | –
2 | GalNAc-T4 (Homo sapiens) | – | – | 480 | 0.25
